Reference: patent publication US20100120688A1 (University of Pennsylvania, published 2010)
Bridge positions count the residues as written; N and C are the ends. Ends that are not written are not given here.

Experiments:
[1] = target: TNF receptor (immobilized, control); experiment: SPR (Biacore 3000), peptide injected over immobilized TNF receptor (control)
[2] = target: T1, ErbB1 extracellular domain (recombinant, soluble) (UniProt P00533 25-645, limits assumed); experiment: SPR; peptide 10 µM preinjected over immobilized ErbB1, then ErbB3 (300 nM) with HRGβ1 (5 µM); competitor: erbB3-HRGβ1
T1 construct: extracellular domain; also called erbB1 ectodomain; EGFr

[3] = target: T1, ErbB1 extracellular domain …; experiment: SPR (Biacore 3000), peptide injected over immobilized receptor extracellular domain
[4] = target: T2, ErbB3 extracellular domain (recombinant, soluble) (UniProt P21860 20-643, limits assumed); experiment: as above
T2 construct: extracellular domain; also called ectodomain of erbB3

[5] = target: T3, ErbB2 extracellular domain (recombinant) (UniProt P04626 23-652, limits assumed); experiment: as above
T3 construct: extracellular domain; also called whole ectodomain of erbB2; full-size erbB2 ectodomain

[6] = target: T3, ErbB2 extracellular domain (recombinant); experiment: SPR; peptide 10 µM preinjected over immobilized ErbB2, then ErbB3 (300 nM) with HRGβ1 (5 µM); competitor: erbB3-HRGβ1
[7] = target: T2, ErbB3 extracellular domain …; experiment: SPR; peptide 10 µM preinjected over immobilized ErbB3, then ErbB3 (300 nM) with HRGβ1 (5 µM); competitor: erbB3-HRGβ1
[8] = target: T4, erbB2-SbdIV (recombinantly expressed subdomain IV of erbB2, GST fusion protein) (UniProt P04626 511-652); experiment: SPR (Biacore), peptide over immobilized erbB2-SbdIV
T4 construct: domain: subdomain IV; Expressed in E. coli BL-21 (DE3) and eluted from glutathione sepharose; no removal of GST is told; also called erbB2-Sbd W; not shown: glutathione S-transferase of the pGEX-5X-3 vector (N-terminal fusion partner)

[9] = target: T1, ErbB1 extracellular domain …; experiment: SPR (Biacore), global fit to the 1:1 Langmuir model; receptor taken as erbB1 by the KD of 0.21 µM
[10] = target: T5, erbB2 receptor, native full-length, on transfected 32D cells (32D-E2/E4 and 32D-E2/E3) (UniProt P04626 23-1255, limits assumed); experiment: inhibition of heregulin-induced erbB2-erbB4 dimerization on 32D-E2/E4 cells, chemical cross-linking and immunoblot, dose dependence; 32D-E2/E4 cells; heregulin-induced erbB2-erbB4 heteromerization
T5 construct: whole, on cells

[11] = target: TNF receptor (immobilized, control); experiment: SPR (Biacore 3000), control peptide injected over immobilized TNF receptor (control)
[12] = target: T1, ErbB1 extracellular domain …; experiment: SPR (Biacore 3000), control peptide injected over immobilized receptor extracellular domain
[13] = target: T2, ErbB3 extracellular domain …; experiment: as above
[14] = target: T3, ErbB2 extracellular domain (recombinant); experiment: as above

T2 sequence (P21860 20-643 limits assumed): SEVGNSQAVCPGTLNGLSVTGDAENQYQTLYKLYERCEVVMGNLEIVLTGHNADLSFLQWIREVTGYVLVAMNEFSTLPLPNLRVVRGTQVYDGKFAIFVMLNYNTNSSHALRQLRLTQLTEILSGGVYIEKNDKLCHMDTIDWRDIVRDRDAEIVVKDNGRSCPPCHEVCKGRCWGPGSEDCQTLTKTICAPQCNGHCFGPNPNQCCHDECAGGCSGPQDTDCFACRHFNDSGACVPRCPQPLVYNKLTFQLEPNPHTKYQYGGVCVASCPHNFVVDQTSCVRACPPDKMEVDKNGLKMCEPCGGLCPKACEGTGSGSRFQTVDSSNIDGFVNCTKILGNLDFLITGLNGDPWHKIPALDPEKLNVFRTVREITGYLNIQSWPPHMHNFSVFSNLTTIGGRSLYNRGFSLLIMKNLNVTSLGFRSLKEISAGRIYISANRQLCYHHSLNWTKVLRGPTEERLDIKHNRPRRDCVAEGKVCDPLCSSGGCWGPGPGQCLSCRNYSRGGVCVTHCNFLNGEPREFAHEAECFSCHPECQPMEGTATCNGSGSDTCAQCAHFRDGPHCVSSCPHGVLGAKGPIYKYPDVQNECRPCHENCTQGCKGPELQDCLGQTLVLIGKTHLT

Binder | Kd [1] [µM] | Percent Inhibition [2] [%] | Kd [3] [µM] | Kd [4] [µM] | Kd [5] [µM] | Percent Inhibition [6] [%] | Percent Inhibition [7] [%] | Kd [8] [µM] | koff [8] [s⁻¹] | kon [8] [M⁻¹ s⁻¹] | koff [9] [s⁻¹] | kon [9] [M⁻¹ s⁻¹] | IC50 [10] [µM] | Kd [11] [µM] | Kd [12] [µM] | Kd [13] [µM] | Kd [14] [µM]
YCPIYKYPDVQCY (disulfide 2-12 (inferred)) [B3-S22-APQ (derived from erbB3)] | > 1000 | 69 | 0.472 | 1.07 | 0.549 | 58.1 | 32.4 | – | – | – | – | – | – | – | – | – | –
YCPIWKFPDEECY (disulfide 2-12 (inferred)) [B2-S22-APE (derived from erbB2)] | > 1000 | 80.3 | 0.21 | 1.4 | 1.53 | 51.1 | 42.7 | 1.89 | 0.00307 | 1620 | 0.000685 | 3240 | – | – | – | – | –
YCFPDEEGACY (disulfide 2-10 (inferred)) [B2-S22-AFA (derived from erbB2)] | > 1000 | 78.4 | 0.407 | 0.429 | 0.302 | 82.5 | 61.7 | – | – | – | – | – | 0.8 | – | – | – | –
YCFIFKYADPDCY (disulfide 2-12 (inferred)) [B4-S22-AFD (derived from erbB4)] | > 1000 | 60.3 | 0.583 | 0.394 | 0.639 | 54.2 | 72.8 | – | – | – | – | – | – | – | – | – | –
YCLVWKYADAGCY (disulfide 2-12 (inferred)) [B1-S22-ALG (derived from erbB1)] | > 1000 | 65.2 | 0.449 | 0.288 | 0.371 | 71.4 | 75.1 | – | – | – | – | – | – | – | – | – | –
FCYIGEVEDQCY (disulfide 2-11 (inferred), also called control peptide) [CD4-G (CD4 receptor-derived cyclic peptide, negative control)] | – | – | – | – | – | – | – | – | – | – | – | – | – | > 1000 | > 1000 | > 1000 | > 1000
